# Experimental data: patent publication US20110294738A1, “PTHR1 RECEPTOR COMPOUNDS” (priority 2008, published 2011)
# * marks the point of attachment. Palmitoyl = CCCCCCCCCCCCCCCC(=O)*
# B1: Compound 42 (peptide)
# peptide: Palmitoyl-GSEKKYLWGFT-NH2
# SMILES: CCCCCCCCCCCCCCCC(=O)NCC(=O)N[C@@H](CO)C(=O)N[C@@H](CCC(=O)O)C(=O)N[C@@H](CCCCN)C(=O)N[C@@H](CCCCN)C(=O)N[C@@H](Cc1ccc(O)cc1)C(=O)N[C@@H](CC(C)C)C(=O)N[C@@H](Cc1c[nH]c2ccccc12)C(=O)NCC(=O)N[C@@H](Cc1ccccc1)C(=O)N[C@H](C(N)=O)[C@@H](C)O
# B2: Compound 75 (peptide)
# peptide: Palmitoyl-RVLATKLRETNAGR-NH2
# SMILES: CCCCCCCCCCCCCCCC(=O)N[C@@H](CCCNC(=N)N)C(=O)N[C@H](C(=O)N[C@@H](CC(C)C)C(=O)N[C@@H](C)C(=O)N[C@H](C(=O)N[C@@H](CCCCN)C(=O)N[C@@H](CC(C)C)C(=O)N[C@@H](CCCNC(=N)N)C(=O)N[C@@H](CCC(=O)O)C(=O)N[C@H](C(=O)N[C@@H](CC(N)=O)C(=O)N[C@@H](C)C(=O)NCC(=O)N[C@@H](CCCNC(=N)N)C(N)=O)[C@@H](C)O)[C@@H](C)O)C(C)C
# B3: Compound 43 (peptide)
# peptide: Palmitoyl-GSEKKYLWG-NH2
# SMILES: CCCCCCCCCCCCCCCC(=O)NCC(=O)N[C@@H](CO)C(=O)N[C@@H](CCC(=O)O)C(=O)N[C@@H](CCCCN)C(=O)N[C@@H](CCCCN)C(=O)N[C@@H](Cc1ccc(O)cc1)C(=O)N[C@@H](CC(C)C)C(=O)N[C@@H](Cc1c[nH]c2ccccc12)C(=O)NCC(N)=O
# B4: Compound 5 (peptide)
# peptide: Palmitoyl-LAYFRRLHSTRNYIH-NH2
# SMILES: CCCCCCCCCCCCCCCC(=O)N[C@@H](CC(C)C)C(=O)N[C@@H](C)C(=O)N[C@@H](Cc1ccc(O)cc1)C(=O)N[C@@H](Cc1ccccc1)C(=O)N[C@@H](CCCNC(=N)N)C(=O)N[C@@H](CCCNC(=N)N)C(=O)N[C@@H](CC(C)C)C(=O)N[C@@H](Cc1c[nH]cn1)C(=O)N[C@@H](CO)C(=O)N[C@H](C(=O)N[C@@H](CCCNC(=N)N)C(=O)N[C@@H](CC(N)=O)C(=O)N[C@@H](Cc1ccc(O)cc1)C(=O)N[C@H](C(=O)N[C@@H](Cc1c[nH]cn1)C(N)=O)[C@@H](C)CC)[C@@H](C)O
# B5: Compound 74 (peptide)
# peptide: Palmitoyl-SGRVLATKLRETNAGR-NH2
# SMILES: CCCCCCCCCCCCCCCC(=O)N[C@@H](CO)C(=O)NCC(=O)N[C@@H](CCCNC(=N)N)C(=O)N[C@H](C(=O)N[C@@H](CC(C)C)C(=O)N[C@@H](C)C(=O)N[C@H](C(=O)N[C@@H](CCCCN)C(=O)N[C@@H](CC(C)C)C(=O)N[C@@H](CCCNC(=N)N)C(=O)N[C@@H](CCC(=O)O)C(=O)N[C@H](C(=O)N[C@@H](CC(N)=O)C(=O)N[C@@H](C)C(=O)NCC(=O)N[C@@H](CCCNC(=N)N)C(N)=O)[C@@H](C)O)[C@@H](C)O)C(C)C
# B6: Compound 17 (peptide)
# peptide: Palmitoyl-SGRRLHSTRNYIHMH-NH2
# SMILES: CCCCCCCCCCCCCCCC(=O)N[C@@H](CO)C(=O)NCC(=O)N[C@@H](CCCNC(=N)N)C(=O)N[C@@H](CCCNC(=N)N)C(=O)N[C@@H](CC(C)C)C(=O)N[C@@H](Cc1c[nH]cn1)C(=O)N[C@@H](CO)C(=O)N[C@H](C(=O)N[C@@H](CCCNC(=N)N)C(=O)N[C@@H](CC(N)=O)C(=O)N[C@@H](Cc1ccc(O)cc1)C(=O)N[C@H](C(=O)N[C@@H](Cc1c[nH]cn1)C(=O)N[C@@H](CCSC)C(=O)N[C@@H](Cc1c[nH]cn1)C(N)=O)[C@@H](C)CC)[C@@H](C)O
# B7: Compound 98 (peptide)
# peptide: Palmitoyl-NGEVQAEIKKSWSRWTLA-NH2
# SMILES: CCCCCCCCCCCCCCCC(=O)N[C@@H](CC(N)=O)C(=O)NCC(=O)N[C@@H](CCC(=O)O)C(=O)N[C@H](C(=O)N[C@@H](CCC(N)=O)C(=O)N[C@@H](C)C(=O)N[C@@H](CCC(=O)O)C(=O)N[C@H](C(=O)N[C@@H](CCCCN)C(=O)N[C@@H](CCCCN)C(=O)N[C@@H](CO)C(=O)N[C@@H](Cc1c[nH]c2ccccc12)C(=O)N[C@@H](CO)C(=O)N[C@@H](CCCNC(=N)N)C(=O)N[C@@H](Cc1c[nH]c2ccccc12)C(=O)N[C@H](C(=O)N[C@@H](CC(C)C)C(=O)N[C@@H](C)C(N)=O)[C@@H](C)O)[C@@H](C)CC)C(C)C
# B8: Compound 97 (peptide)
# peptide: Palmitoyl-KKSWSRWTLALDFKRKAR-NH2
# SMILES: CCCCCCCCCCCCCCCC(=O)N[C@@H](CCCCN)C(=O)N[C@@H](CCCCN)C(=O)N[C@@H](CO)C(=O)N[C@@H](Cc1c[nH]c2ccccc12)C(=O)N[C@@H](CO)C(=O)N[C@@H](CCCNC(=N)N)C(=O)N[C@@H](Cc1c[nH]c2ccccc12)C(=O)N[C@H](C(=O)N[C@@H](CC(C)C)C(=O)N[C@@H](C)C(=O)N[C@@H](CC(C)C)C(=O)N[C@@H](CC(=O)O)C(=O)N[C@@H](Cc1ccccc1)C(=O)N[C@@H](CCCCN)C(=O)N[C@@H](CCCNC(=N)N)C(=O)N[C@@H](CCCCN)C(=O)N[C@@H](C)C(=O)N[C@@H](CCCNC(=N)N)C(N)=O)[C@@H](C)O
# B9: Compound 73 (peptide)
# peptide: Palmitoyl-SGRVLATKLRETNA-NH2
# SMILES: CCCCCCCCCCCCCCCC(=O)N[C@@H](CO)C(=O)NCC(=O)N[C@@H](CCCNC(=N)N)C(=O)N[C@H](C(=O)N[C@@H](CC(C)C)C(=O)N[C@@H](C)C(=O)N[C@H](C(=O)N[C@@H](CCCCN)C(=O)N[C@@H](CC(C)C)C(=O)N[C@@H](CCCNC(=N)N)C(=O)N[C@@H](CCC(=O)O)C(=O)N[C@H](C(=O)N[C@@H](CC(N)=O)C(=O)N[C@@H](C)C(N)=O)[C@@H](C)O)[C@@H](C)O)C(C)C
# B10: Compound 16 (peptide)
# peptide: Palmitoyl-RRLHSTRNYIHMHL-NH2
# SMILES: CCCCCCCCCCCCCCCC(=O)N[C@@H](CCCNC(=N)N)C(=O)N[C@@H](CCCNC(=N)N)C(=O)N[C@@H](CC(C)C)C(=O)N[C@@H](Cc1c[nH]cn1)C(=O)N[C@@H](CO)C(=O)N[C@H](C(=O)N[C@@H](CCCNC(=N)N)C(=O)N[C@@H](CC(N)=O)C(=O)N[C@@H](Cc1ccc(O)cc1)C(=O)N[C@H](C(=O)N[C@@H](Cc1c[nH]cn1)C(=O)N[C@@H](CCSC)C(=O)N[C@@H](Cc1c[nH]cn1)C(=O)N[C@@H](CC(C)C)C(N)=O)[C@@H](C)CC)[C@@H](C)O
# B11: Compound 96 (peptide)
# peptide: Palmitoyl-EIKKSWSRWTLALDFKRKAR-NH2
# SMILES: CCCCCCCCCCCCCCCC(=O)N[C@@H](CCC(=O)O)C(=O)N[C@H](C(=O)N[C@@H](CCCCN)C(=O)N[C@@H](CCCCN)C(=O)N[C@@H](CO)C(=O)N[C@@H](Cc1c[nH]c2ccccc12)C(=O)N[C@@H](CO)C(=O)N[C@@H](CCCNC(=N)N)C(=O)N[C@@H](Cc1c[nH]c2ccccc12)C(=O)N[C@H](C(=O)N[C@@H](CC(C)C)C(=O)N[C@@H](C)C(=O)N[C@@H](CC(C)C)C(=O)N[C@@H](CC(=O)O)C(=O)N[C@@H](Cc1ccccc1)C(=O)N[C@@H](CCCCN)C(=O)N[C@@H](CCCNC(=N)N)C(=O)N[C@@H](CCCCN)C(=O)N[C@@H](C)C(=O)N[C@@H](CCCNC(=N)N)C(N)=O)[C@@H](C)O)[C@@H](C)CC
# B12: Compound 4 (peptide)
# peptide: Palmitoyl-LAYFRRLHSTR-NH2
# SMILES: CCCCCCCCCCCCCCCC(=O)N[C@@H](CC(C)C)C(=O)N[C@@H](C)C(=O)N[C@@H](Cc1ccc(O)cc1)C(=O)N[C@@H](Cc1ccccc1)C(=O)N[C@@H](CCCNC(=N)N)C(=O)N[C@@H](CCCNC(=N)N)C(=O)N[C@@H](CC(C)C)C(=O)N[C@@H](Cc1c[nH]cn1)C(=O)N[C@@H](CO)C(=O)N[C@H](C(=O)N[C@@H](CCCNC(=N)N)C(N)=O)[C@@H](C)O
# B13: Compound 72 (peptide)
# peptide: Palmitoyl-SGRVLATKLRET-NH2
# SMILES: CCCCCCCCCCCCCCCC(=O)N[C@@H](CO)C(=O)NCC(=O)N[C@@H](CCCNC(=N)N)C(=O)N[C@H](C(=O)N[C@@H](CC(C)C)C(=O)N[C@@H](C)C(=O)N[C@H](C(=O)N[C@@H](CCCCN)C(=O)N[C@@H](CC(C)C)C(=O)N[C@@H](CCCNC(=N)N)C(=O)N[C@@H](CCC(=O)O)C(=O)N[C@H](C(N)=O)[C@@H](C)O)[C@@H](C)O)C(C)C
# B14: Compound 41 (peptide)
# peptide: Palmitoyl-GSEKKYLWGFTVF-NH2
# SMILES: CCCCCCCCCCCCCCCC(=O)NCC(=O)N[C@@H](CO)C(=O)N[C@@H](CCC(=O)O)C(=O)N[C@@H](CCCCN)C(=O)N[C@@H](CCCCN)C(=O)N[C@@H](Cc1ccc(O)cc1)C(=O)N[C@@H](CC(C)C)C(=O)N[C@@H](Cc1c[nH]c2ccccc12)C(=O)NCC(=O)N[C@@H](Cc1ccccc1)C(=O)N[C@H](C(=O)N[C@H](C(=O)N[C@@H](Cc1ccccc1)C(N)=O)C(C)C)[C@@H](C)O
# B15: Compound 15 (peptide)
# peptide: Palmitoyl-RRLHSTRNYIHM-NH2
# SMILES: CCCCCCCCCCCCCCCC(=O)N[C@@H](CCCNC(=N)N)C(=O)N[C@@H](CCCNC(=N)N)C(=O)N[C@@H](CC(C)C)C(=O)N[C@@H](Cc1c[nH]cn1)C(=O)N[C@@H](CO)C(=O)N[C@H](C(=O)N[C@@H](CCCNC(=N)N)C(=O)N[C@@H](CC(N)=O)C(=O)N[C@@H](Cc1ccc(O)cc1)C(=O)N[C@H](C(=O)N[C@@H](Cc1c[nH]cn1)C(=O)N[C@@H](CCSC)C(N)=O)[C@@H](C)CC)[C@@H](C)O
# Biological target: PTHR1 receptor
# Sequence (P25961 whole entry): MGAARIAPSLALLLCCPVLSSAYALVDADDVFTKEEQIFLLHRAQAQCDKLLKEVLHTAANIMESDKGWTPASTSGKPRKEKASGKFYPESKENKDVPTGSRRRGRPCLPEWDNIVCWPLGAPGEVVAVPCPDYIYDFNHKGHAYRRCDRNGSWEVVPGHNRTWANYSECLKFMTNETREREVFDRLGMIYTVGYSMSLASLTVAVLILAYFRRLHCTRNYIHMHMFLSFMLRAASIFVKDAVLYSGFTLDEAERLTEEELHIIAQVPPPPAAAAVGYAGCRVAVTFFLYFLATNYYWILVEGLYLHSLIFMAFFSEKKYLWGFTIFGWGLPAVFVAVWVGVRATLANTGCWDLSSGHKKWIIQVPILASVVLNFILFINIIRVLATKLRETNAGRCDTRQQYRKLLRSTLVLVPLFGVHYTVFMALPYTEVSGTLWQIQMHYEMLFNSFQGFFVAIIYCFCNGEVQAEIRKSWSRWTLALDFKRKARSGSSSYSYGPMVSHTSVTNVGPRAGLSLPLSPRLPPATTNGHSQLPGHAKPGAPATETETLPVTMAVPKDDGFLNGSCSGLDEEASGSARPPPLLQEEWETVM
Binder,Fold Shift of EC50,Inhibition of Maximal Response
B1,1.3 fold,40.8%
B2,1.1 fold,12.6%
B3,1.4 fold,5.7%
B4,1 fold,13%
B5,1.9 fold,22.2%
B6,2.8 fold,39.4%
B7,1 fold,0.5%
B8,4.7 fold,37.2%
B9,0.8 fold,32.3%
B10,2.45 fold,0.0965
B11,1.1 fold,7%
B12,0.9 fold,-74.2%
B13,0.7 fold,22.3%
B14,0.9 fold,17.7%
B15,1.7 fold,1.5%
